What was measured:
[1] = system: MS2 coat protein; experiment: apparent KD of MS2 coat protein, switch ON state; designed switch direction (-1 OFF switch, 1 ON switch): -1; higher = weaker reporter binding; conditions: FMN input: 0 or 200 uM; Eterna round: R93 (includes R88 designs)
In short: (§1)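 Binding of SNAP-549-labelled MS2 coat protein was measured on designed RNA switches transcribed on-chip from Illumina sequencing clusters. The protein rose in twofold steps from 0.7 or 1.5 nM to 3 µM, with 0.8–1.5 h per step early on and 10–20 min per step later, in 100 mM Tris-HCl pH 7.5, 80 mM KCl, 4 mM MgCl2, without or with constant ligand. Each design's apparent KD is the median of fits to its normalised cluster binding curves.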

[2] = system: MS2 coat protein; experiment: apparent KD of MS2 coat protein, switch OFF state (with FMN for OFF switches, without FMN for ON switches); designed switch direction (-1 OFF switch, 1 ON switch): -1; higher = weaker reporter binding; conditions: FMN input: 0 or 200 uM; Eterna round: R93 (includes R88 designs)
In short: as §1

Sequence	apparent KD of MS2 coat protein [1] [nM]	apparent KD of MS2 coat protein [2] [nM]
AAGAAGGCAGGAUAUACAAAAUAAAAGAAAAGAAAGAAAGAACAUGAGGAUCACCCAUGUAGAAGGGCCAAGAA [Seankhibre Amenemhet VI]	58.3	37.2
GGUUGAAAAGGAUAUACAUGAGGAUCACCCAUGUGAGAGAAAAAAGUGAGAAAGAAAAGUAGAAGGUUUUGACG [salish99-ex3-61]	22.8	44
ACCAGACAUGAGGAUCACCCAUGUCAGGAUAUAGUAUGAAAAAAAAAAAAAAAAAAUACUAGAAGGGACAAGGG [Design 14: Super Stable Short Helix 5]	29.7	63.8
AAUAAGACAGGAUAUACUAAAGAAAUGAAAAGAAAUAAAGAACAUGAGGAUCACCCAUGUAGAAGGGUCAAUAA ['Apepi]	50.3	32.4
AAGAAUCGAGGAUAUACAUGAGGAUCACCCAUGUAAAAGAAAGAGGGAAAAGAGAAAAGUAGAAGGCGAAAGAA [Ptolemy Memphitis]	45.9	21.6
AAAGAUGGAGGAUAUACAUGAGGAUCACCCAUGUGGAAUCUAAAAUGGGAAAAAGAAAGUAGAAGGCCAUAAAA [Ex 3 May 40]	36.7	83.1
AGUAUGCGAGGAUAUACAUGAGGAUCACCCAUGUGAGAGAUAAAAGUGAGAAAGAAAAGUAGAAGGCGCGUACA [JL Lego Mod 21]	50.7	326
CUUAUGUCAGGAUAUCAGUAGUAAAAAAAUAAAAUUACUACUGAGAAGGGACAUGAGGAUCACCCAUGUCCGGG [EX4 369: Super Stable 69]	78.4	34
UAAACCCUAGGAUAUACAUGAGGAUCACCCAUGUUUGUCGAAGAACGAACAGUCCUCAGUAGAAGGAGGACGAA [Geriza]	27.4	24.3
AGUAUGCGAGGAUAUACAUGAGGAUCACCCAUGUGAGAGAUAAGAGUGAGAAAGACAAGUAGAAGGCGCGUACA [JL Lego Mod 25]	78.4	71.7
AAAAAGGUAGGAUAUACAUGAGGAUCACCCAUGUACAUAAAUGGAGAAAAAAACAGUUGUAGAAGGGCCAAAAA [Ex3 Malc#9]	41.7	34.5
AACUGACAUGAGGAUCACCCAUGUCAGGAUAUGACAUCGAAAAAAAAAAAAAUCGUUGUCAGAAGGGACAUGGG [Design 73: Sub-opt QB]	11.9	9.44
AAUAAGUGAGGAUAUGGAAAUAGUAGAUAAGAUACCCUAAACCAGAAGGCACAUGAGGAUCACCCAUGUAAAUA [JR_Exc004_Sub004]	32.7	23.7
GGUUGGCGAGGAUAUACAUGAGGAUCACCCAUGUGAGUGAAAAAAGUGAGAAAGAAAAGUAGAAGGCGCUGACG [salish99-ex3-47]	161	489
AAAGAUUGAGGAUAUACAUGAGGAUCACCCAUGUAAAAAAAAAAAAGGGUGGAAGAAAGUAGAAGGCAACAAAA [Ex 3 May 46]	80.6	284
GUAAACCUAGGAUAUACAUGAGGAUCACCCAUGUAAAGUUUCGUAAAAAGAAAAUCGAGUAGAAGGAGGUAGAU [JR_Exc003_Sub1222]	22.5	26.6
AAGAAGGUAGGAUAUACUAACGAAACUAAUGCAUAGAUAAAACAUGAGGAUCACCCAUGUAGAAGGGCCAGAAU [JR_Exc002_Sub015]	43.8	26.6
AAAAAACAUGAGGAUCACCCAUGUCAGGAUAUCGAAAAGAAAAGAAAAGAAAGAAGAACGAGAAGGGACAAGAA [Menkaura]	29.3	24.5

Sequence	apparent KD of MS2 coat protein [1] [nM]	apparent KD of MS2 coat protein [2] [nM]
AACAGUACAGGAUAUACAUGAGGAUCACCCAUGUAAAAAUAAAAAGGGAACUCAAAAAGUAGAAGGGUACUGGA [Moding Maslow revisited (73) 14]	72.6	32.5
AGGUGACAUGAGGAUCACCCAUGUCAGGAUAUAUACACCACCGGCGUGAAGCCGGCGGAUAGAAGGGACAAAAU [Anesar]	15.6	18.2
AAAAAGAUAGGAUAUACGAACAUGUCAAAAGACGUGAAGGGACAUGAGGAUCACCCAUGUAGAAGGAUUAAAAA [JL Wide Open 39]	38.8	17.2
GAGGCUGAAGGAUAUACAAGGGCCUCACCGCCAAAACGGAAACAUGAGGAUCACCCAUGUAGAAGGUCAAUAAA [Reisvexe]	57.1	77
AAAAAGUGAGGAUAUCGGAAAAAAAAAAAAAAAAAAAAAAACGAGAAGGCACAUGAGGAUCACCCAUGUAAAAA [all GC all the time + G boost - take 2]	42.2	45.6
AAAAAACAUGAGGAUCACCCAUGUUAGGAUAUGCUAUGGAAAAUAAAAAUAAAACAUAGCAGAAGGGACAAAAA [Denovo 1]	21.3	32
AUAAAGUCAGGAUAUGUAAAAAUAACGAAAGUUAUAAAUAAACAGAAGGGACAUGAGGAUCACCCAUGUACAAU [Opal 15]	25.4	21.2
AACUAGUGAGGAUAUGCAAGAAAAAAAAAAAAAAUAAAGGGACAUGAGGAUCACCCAUGUAGAAGGCACUAACA [Diamond 68]	42.7	58.8
AAAAAACAUGAGGAUCACCCAUGUGAGGAUAUCUGUAUUCAAUCCUCGGAUUGAAUACAGAGAAGGCACAUGAA [Ex1: 611]	34	330
AACAGUACAGGAUAUACAUGAGGAUCACCCAUGUAGAGAGAAUAAAACAAAAAUAAAAGUAGAAGGGUACUGGA [Ruby 48]	21.8	19.3
AGCUAGUGAGGAUAUACGAACAUGUCAAAAGACGUGAAGGGACAUGAGGAUCACCCAUGUAGAAGGCGCUAGCA [JL 74% mod]	53.4	157
UCUUGACAUGAGGAUCACCCAUGUCAGGAUAUAGUAGGACAAAUAAAUAAAAGUUCUACUAGAAGGGAUAUGGA [Design 18: G-U+]	14.3	12.7
AAAAAACAUGAGGAUCACCCAUGUGAGGAUAUCGUGCAGAAAAAAAAAAAAAACUGCACGAGAAGGCACAUGAA	38.9	105
GCUGGCCAAGGAUAUACAUGAGGAUCACCCAUGUGAGAGAAAAAAGUGAGAAAGAAAAGUAGAAGGUGGGUAGG [salish99-ex3-111]	59	56.9
AGUGAGUGAGGAUAUGCCUGAAGAAUAAAAGAAAUAACGAGGCAGAAGGCACAUGAGGAUCACCCAUGUACACA [May 65]	32.1	28.2
GAACACGGAGGAUAUACAUGAGGAUCACCCAUGUUGAUCCUCAUUAAAAUUGAUAAAUGUAGAAGGCCGUGAUA [Exclusion 3.11 (a Vinnie Mod, FMN+ favored more)]	49.4	21.2
AGCUAGUGAGGAUAUACAAGAAUAUAAACGAACAUAAAGGGACAUGAGGAUCACCCAUGUAGAAGGCACUAGCA [Diamond 73]	42.6	152

Reference: the supplement of paper PMC9170038
